Reference: patent US20250382344A1, “Soluble GLP1/GIP/NPY2 Receptor Triple Agonists” (Boehringer Ingelheim International GmH, priority 2024, published 2025)
*1 amine or outer side, *2 acyl side, *3 side chain or, on linkers, in order; H or OH if unused. Where no end group is shown, it is not given here. Side-chain parts run from the residue outwards. [ ]: non-standard residue; d: D form. The star is where a group is joined. C20 diacid = O=C(O)CCCCCCCCCCCCCCCCCCC(=O)*; C18 diacid = O=C(O)CCCCCCCCCCCCCCCCC(=O)*; γGlu = O=C(O)[C@H](CCC(=O)[*:2])N[*:1]; NMeQ = CN[C@@H](CCC(N)=O)C(=O)O; AEEA = NCCOCCOCC(=O)O; Aib = CC(C)(N)C(=O)O

T1: human GIP receptor (human, UniProt P48546 22-466)
T1 sequence (looked up): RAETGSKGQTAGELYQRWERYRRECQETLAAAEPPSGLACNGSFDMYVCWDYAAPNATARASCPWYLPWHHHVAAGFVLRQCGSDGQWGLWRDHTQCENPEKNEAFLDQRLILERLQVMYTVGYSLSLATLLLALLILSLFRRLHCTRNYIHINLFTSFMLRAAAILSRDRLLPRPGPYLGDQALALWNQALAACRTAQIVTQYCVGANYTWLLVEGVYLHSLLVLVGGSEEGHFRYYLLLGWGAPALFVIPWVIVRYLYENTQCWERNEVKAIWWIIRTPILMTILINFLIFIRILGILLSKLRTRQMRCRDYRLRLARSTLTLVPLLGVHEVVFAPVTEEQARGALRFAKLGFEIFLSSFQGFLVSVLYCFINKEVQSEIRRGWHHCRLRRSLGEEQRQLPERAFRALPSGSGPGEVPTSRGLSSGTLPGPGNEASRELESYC

T2: human neuropeptide Y2 receptor (human, UniProt P49146 1-381)
T2 sequence (looked up): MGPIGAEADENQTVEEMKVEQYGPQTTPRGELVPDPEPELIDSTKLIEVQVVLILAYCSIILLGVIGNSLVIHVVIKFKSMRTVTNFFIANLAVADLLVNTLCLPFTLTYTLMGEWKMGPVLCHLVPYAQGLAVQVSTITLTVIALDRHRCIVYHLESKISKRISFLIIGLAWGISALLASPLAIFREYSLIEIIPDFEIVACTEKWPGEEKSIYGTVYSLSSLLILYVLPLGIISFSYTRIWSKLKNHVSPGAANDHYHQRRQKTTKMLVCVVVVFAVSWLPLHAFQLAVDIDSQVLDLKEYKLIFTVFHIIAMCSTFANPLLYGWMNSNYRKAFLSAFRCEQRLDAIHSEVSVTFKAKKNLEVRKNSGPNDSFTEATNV


Tests used:
Assay in all cases: cell-based or functional assay
[1] = target: human GLP-1 receptor (human, UniProt P43220 24-463)
[2] = target: T1, human GIP receptor
[3] = target: human GLP-1 receptor (human, UniProt P43220 24-463); remark: listed apart in the source
[4] = target: T2, human neuropeptide Y2 receptor

Binder	EC50, CreLuc reporter, 100% hP [1]	EC50, CreLuc reporter, 0.5% hP [2]	EC50, CreLuc reporter, 0.5% hP [3]	EC50, CreLuc reporter, 100% hP [3]	EC50, CreLuc reporter, 0.5% hP [4]	EC50, CreLuc reporter, 100% hP [4]	EC50, CreLuc reporter, 100% hP [2]
Y[Aib]EGTFTSDYSI[Aib]LEKQAQ[Aib]AFVRHLINK([γGlu-γGlu-γGlu-γGlu-C18 diacid])[Aib]TRQRY-NH2 [Compound 77]	1.8 nM						
Y[Aib]EGTFTSDYSI[Aib]LEKQAQ[Aib]AFVRHLINK([γGlu-γGlu-γGlu-γGlu-γGlu-γGlu-C20 diacid])[Aib]TR[NMeQ]RY-NH2 (N-terminus assumed; SMILES CC[C@H](C)[C@H](NC(=O)[C@H](CC(C)C)NC(=O)[C@H](Cc1c[nH]cn1)NC(=O)[C@H](CCCNC(=N)N)NC(=O)[C@@H](NC(=O)[C@H](Cc1ccccc1)NC(=O)[C@H](C)NC(=O)C(C)(C)NC(=O)[C@H](CCC(N)=O)NC(=O)[C@H](C)NC(=O)[C@H](CCC(N)=O)NC(=O)[C@H](CCCCN)NC(=O)[C@H](CCC(=O)O)NC(=O)[C@H](CC(C)C)NC(=O)C(C)(C)NC(=O)[C@@H](NC(=O)[C@H](CO)NC(=O)[C@H](Cc1ccc(O)cc1)NC(=O)[C@H](CC(=O)O)NC(=O)[C@H](CO)NC(=O)[C@@H](NC(=O)[C@H](Cc1ccccc1)NC(=O)[C@@H](NC(=O)CNC(=O)[C@H](CCC(=O)O)NC(=O)C(C)(C)NC(=O)[C@@H](N)Cc1ccc(O)cc1)[C@@H](C)O)[C@@H](C)O)[C@@H](C)CC)C(C)C)C(=O)N[C@@H](CC(N)=O)C(=O)N[C@@H](CCCCNC(=O)CC[C@H](NC(=O)CC[C@H](NC(=O)CC[C@H](NC(=O)CC[C@H](NC(=O)CC[C@H](NC(=O)CC[C@H](NC(=O)CCCCCCCCCCCCCCCCCCC(=O)O)C(=O)O)C(=O)O)C(=O)O)C(=O)O)C(=O)O)C(=O)O)C(=O)NC(C)(C)C(=O)N[C@H](C(=O)N[C@@H](CCCNC(=N)N)C(=O)N(C)[C@@H](CCC(N)=O)C(=O)N[C@@H](CCCNC(=N)N)C(=O)N[C@@H](Cc1ccc(O)cc1)C(N)=O)[C@@H](C)O) [Compound 114]		0.5 nM	1.8 nM	10 nM	82.1 nM	657 nM	
YXEGTFTSDYSIXLEKQAQXAFVRHLINKXTRQRY (Aib at 2, 20, 30; aMeL at 13; Lys29 epsilon-amino: C18DA-gGlu-gGlu-gGlu-gGlu-gGlu-gGlu-eLys; C-terminal amide) [Compound 119]			0.1 nM			43.7 nM	0.8 nM
Y[Aib]EGTFTSDYSI[Aib]LEEQAQ[Aib]EFVRHLINK([γGlu-γGlu-γGlu-γGlu-C18 diacid])[Aib]TRQRY-NH2 (N-terminus assumed; SMILES CC[C@H](C)[C@H](NC(=O)[C@H](CC(C)C)NC(=O)[C@H](Cc1c[nH]cn1)NC(=O)[C@H](CCCNC(=N)N)NC(=O)[C@@H](NC(=O)[C@H](Cc1ccccc1)NC(=O)[C@H](CCC(=O)O)NC(=O)C(C)(C)NC(=O)[C@H](CCC(N)=O)NC(=O)[C@H](C)NC(=O)[C@H](CCC(N)=O)NC(=O)[C@H](CCC(=O)O)NC(=O)[C@H](CCC(=O)O)NC(=O)[C@H](CC(C)C)NC(=O)C(C)(C)NC(=O)[C@@H](NC(=O)[C@H](CO)NC(=O)[C@H](Cc1ccc(O)cc1)NC(=O)[C@H](CC(=O)O)NC(=O)[C@H](CO)NC(=O)[C@@H](NC(=O)[C@H](Cc1ccccc1)NC(=O)[C@@H](NC(=O)CNC(=O)[C@H](CCC(=O)O)NC(=O)C(C)(C)NC(=O)[C@@H](N)Cc1ccc(O)cc1)[C@@H](C)O)[C@@H](C)O)[C@@H](C)CC)C(C)C)C(=O)N[C@@H](CC(N)=O)C(=O)N[C@@H](CCCCNC(=O)CC[C@H](NC(=O)CC[C@H](NC(=O)CC[C@H](NC(=O)CC[C@H](NC(=O)CCCCCCCCCCCCCCCCC(=O)O)C(=O)O)C(=O)O)C(=O)O)C(=O)O)C(=O)NC(C)(C)C(=O)N[C@H](C(=O)N[C@@H](CCCNC(=N)N)C(=O)N[C@@H](CCC(N)=O)C(=O)N[C@@H](CCCNC(=N)N)C(=O)N[C@@H](Cc1ccc(O)cc1)C(N)=O)[C@@H](C)O) [Compound 129]		0.4 nM	0.9 nM	2.8 nM	213 nM	827 nM	7.1 nM
Y[Aib]EGTFTSDYSI[Aib]LEEEAQ[Aib]EFVRHLINK([AEEA-AEEA-γGlu-C18 diacid])[Aib]TRQRY-NH2 (N-terminus assumed; SMILES CC[C@H](C)[C@H](NC(=O)[C@H](CC(C)C)NC(=O)[C@H](Cc1c[nH]cn1)NC(=O)[C@H](CCCNC(=N)N)NC(=O)[C@@H](NC(=O)[C@H](Cc1ccccc1)NC(=O)[C@H](CCC(=O)O)NC(=O)C(C)(C)NC(=O)[C@H](CCC(N)=O)NC(=O)[C@H](C)NC(=O)[C@H](CCC(=O)O)NC(=O)[C@H](CCC(=O)O)NC(=O)[C@H](CCC(=O)O)NC(=O)[C@H](CC(C)C)NC(=O)C(C)(C)NC(=O)[C@@H](NC(=O)[C@H](CO)NC(=O)[C@H](Cc1ccc(O)cc1)NC(=O)[C@H](CC(=O)O)NC(=O)[C@H](CO)NC(=O)[C@@H](NC(=O)[C@H](Cc1ccccc1)NC(=O)[C@@H](NC(=O)CNC(=O)[C@H](CCC(=O)O)NC(=O)C(C)(C)NC(=O)[C@@H](N)Cc1ccc(O)cc1)[C@@H](C)O)[C@@H](C)O)[C@@H](C)CC)C(C)C)C(=O)N[C@@H](CC(N)=O)C(=O)N[C@@H](CCCCNC(=O)COCCOCCNC(=O)COCCOCCNC(=O)CC[C@H](NC(=O)CCCCCCCCCCCCCCCCC(=O)O)C(=O)O)C(=O)NC(C)(C)C(=O)N[C@H](C(=O)N[C@@H](CCCNC(=N)N)C(=O)N[C@@H](CCC(N)=O)C(=O)N[C@@H](CCCNC(=N)N)C(=O)N[C@@H](Cc1ccc(O)cc1)C(N)=O)[C@@H](C)O) [Compound 130]		0.5 nM		2.3 nM	75 nM	789 nM	10 nM
YXEGTFTSDYSIXLEKQAQXAFVRHLINKXTRQRY (Aib at 2, 13, 20, 30; Lys29 epsilon-amino: C18DA-TRX-gGlu-gGlu-gGlu-gGlu-gGlu-gGlu-eLys; C-terminal amide) [Compound 137]		0.5 nM		13.7 nM	20.1 nM	46.4 nM	
YXEGTFTSDYSIXLDRQAQXAFVRHLINKXTRQRY (Aib at 2, 13, 20, 30; Lys29 epsilon-amino: C18DA-gGlu-gGlu-gGlu-gGlu-gGlu-gGlu-eLys; C-terminal amide) [Compound 147]		0.2 nM	0.3 nM	2.3 nM	11.1 nM	86.3 nM	5 nM
YXEGTFTSDYSAXLEKQAQXAFVRHLINKXTRQRY (Aib at 2, 13, 20, 30; Lys29 epsilon-amino: C18DA-gGlu-gGlu-gGlu-gGlu-gGlu-gGlu-eLys; C-terminal amide) [Compound 156]		0.8 nM	7 nM	33.1 nM	16.3 nM	44.1 nM	14.8 nM
